In PMC7566464 one finds stoichiometry N data, which are given here for one substance.

The target in this test is oxidised human Prdx6 (Peroxiredoxin 6), peroxidatic cysteine in the sulfenic acid form (human) (UniProt P30041). Briefly: SEC; Sephadex G-75, 20 mM Tris-HCl pH 7.0, 500 ul of 2 mg/ml protein, void volume by Blue dextran. (Size exclusion chromatography separates by hydrodynamic size, large species first.)

The term stoichiometry N denotes the number of molecules, sites or subunits per partner or assembly.

With “oxidised human Prdx6 (Peroxiredoxin 6), peroxidatic cysteine in the sulfenic acid form (from UniProt P30041 1-224) (enzyme)”, the stoichiometry N is 2.
